Key:
[1] = target: transmembrane domain of SaeS (SaeS TM), reconstituted into DMPC/DHPC bicelles (Staphylococcus aureus); assay: SPR
[2] = target: transmembrane domain of SaeS (SaeS TM), reconstituted into DMPC/DHPC bicelles (Staphylococcus aureus); assay: SDS-PAGE

Chain of transmembrane domain of SaeS (SaeS TM), reconstituted into DMPC/DHPC bicelles (Staphylococcus aureus) (Q2FIT5 whole entry, the tested form may be a part): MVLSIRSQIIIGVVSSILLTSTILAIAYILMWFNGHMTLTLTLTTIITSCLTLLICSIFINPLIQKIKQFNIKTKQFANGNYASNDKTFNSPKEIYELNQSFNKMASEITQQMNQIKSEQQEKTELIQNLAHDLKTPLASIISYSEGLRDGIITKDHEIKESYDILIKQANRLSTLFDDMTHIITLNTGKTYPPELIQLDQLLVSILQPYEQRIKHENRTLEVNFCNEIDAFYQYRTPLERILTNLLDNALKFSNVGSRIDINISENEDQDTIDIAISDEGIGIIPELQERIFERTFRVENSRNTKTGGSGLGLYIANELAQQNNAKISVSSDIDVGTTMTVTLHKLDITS

Human neutrophil defensin-1 (from UniProt P59665 65-94) (peptide)
Kd [1]: 1070 nM
koff [1]: 0.0186 s⁻¹
kon [1]: 17400 M⁻¹ s⁻¹

transmembrane domain of SaeS (SaeS TM), reconstituted into DMPC/DHPC bicelles (domain or fragment)
stoichiometry N [2]: 2

— article PMC11981803
